Reference: paper PMC11925332, “Structural Insights and Reaction Profile of a New Unspecific Peroxygenase from Marasmius wettsteinii Produced in a Tandem-Yeast Expression System” (ACS Chemical Biology, 2024)

Assays:
[1] = biological target: Recombinant unspecific peroxygenase MweUPO-1 from Marasmius wettsteinii (Marasmius wettsteinii); assay: crystal structure; deglycosylated (Endo H) MweUPO-1, 11 mg/mL in 50 mM sodium citrate pH 5.6; sitting-drop vapor diffusion at 18 °C, 10-20% (v/v) PEG 4000, 0.2 M (NH4)2SO4; space group P43212, two molecules per asymmetric unit
purified protein [2] = substrate: COc1cccc(OC)c1O; assay: purified protein; assay type: biochemical, Marasmius wettsteinii; conditions: 2 mM H2O2; 100 mM potassium phosphate pH 5.0 per table footnote (methods section says phosphate pH 6.0)
purified protein [3] = substrate: CCn1c(=NN=c2sc3cc(S(=O)(=O)O)ccc3n2CC)sc2cc(S(=O)(=O)O)ccc21; assay: purified protein; conditions: 2 mM H2O2, 100 mM Britton-Robinson buffer pH 4.0 per table footnote (methods section says phosphate/citrate pH 4.0)
purified protein [4] = substrate: COc1ccc(CO)cc1OC; assay: purified protein; conditions: 2 mM H2O2; 100 mM potassium phosphate pH 5.0 per table footnote (methods section says phosphate pH 7.0)

| stoichiometry N [1] | Molecule | Km (purified protein [2]) | kcat (purified protein [2]) | kcat/Km (purified protein [2]) | Km (purified protein [3]) | kcat (purified protein [3]) | kcat/Km (purified protein [3]) | Km (purified protein [4]) | kcat (purified protein [4]) | kcat/Km (purified protein [4]) |
| --- | --- | --- | --- | --- | --- | --- | --- | --- | --- | --- |
| 2 | Recombinant unspecific peroxygenase MweUPO-1 from Marasmius wettsteinii (enzyme) | – | – | – | – | – | – | – | – | – |
| – | MweUPO-1 (Marasmius wettsteinii) (protein) SAHPWKAPGPNDSRGPCPGLNTLANHGFLPRNGRNISVPMIVKAGFEGYNVQSDILILAGKVGMLTSREADTISLEDLKLHGTIEHDASLSREDVAIGDNLHFNEAIFTTLANSNPGADVYNISSAAQVQHDRLADSVARNPNVTNTDLTATIRSSESAFYLTVMSAGDPLRGEAPKKFVNVFFQEERMPIKEGWKRSTTPINLPLLGPIIDRITELSDWKPTGDNCGAIVLGPGL | 220 ± 1 µM | 61.6 ± 0.85 s⁻¹ | 285000 M⁻¹ s⁻¹ | 30 ± 3 µM | 15.5 ± 0.68 s⁻¹ | 534000 M⁻¹ s⁻¹ | 260 ± 80 µM | 22.5 ± 0.73 s⁻¹ | 87600 M⁻¹ s⁻¹ |
